In data set [1] the test system is positional scanning peptide library Y-A-X-X-X-X-X-S/T-X-X-X-X-A-G-K-K-biotin.

Consider one substance from patent US10254283.

Flag-eIF4B (wild type), sequence (chain, as listed by the source): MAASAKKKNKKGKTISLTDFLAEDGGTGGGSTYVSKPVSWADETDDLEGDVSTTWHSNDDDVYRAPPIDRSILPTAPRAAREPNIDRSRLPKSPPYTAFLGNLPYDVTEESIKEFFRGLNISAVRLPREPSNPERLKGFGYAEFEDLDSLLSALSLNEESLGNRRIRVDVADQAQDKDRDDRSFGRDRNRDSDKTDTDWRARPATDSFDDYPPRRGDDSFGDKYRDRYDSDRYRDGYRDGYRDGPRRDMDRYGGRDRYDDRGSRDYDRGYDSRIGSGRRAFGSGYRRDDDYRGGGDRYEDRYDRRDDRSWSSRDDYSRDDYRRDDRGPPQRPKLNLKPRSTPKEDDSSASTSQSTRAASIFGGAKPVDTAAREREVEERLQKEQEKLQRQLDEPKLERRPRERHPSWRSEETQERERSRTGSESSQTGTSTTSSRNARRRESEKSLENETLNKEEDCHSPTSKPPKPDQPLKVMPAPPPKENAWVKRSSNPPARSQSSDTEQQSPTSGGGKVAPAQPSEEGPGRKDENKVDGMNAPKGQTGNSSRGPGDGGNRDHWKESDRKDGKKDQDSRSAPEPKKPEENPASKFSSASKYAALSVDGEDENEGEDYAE
Flag-eIF4B (S406A), sequence (chain, as listed by the source S406A): as the sequence (chain, as listed by the source) above, with S406A counted along it

Turning to recombinant full-length MELK, in the data set with Flag-eIF4B (wild type), the “in vitro kinase assay, phosphorylation of eIF4B at Ser406 (immunoblot)” value is on record as “Ser406, but not Ser422, of human eIF4B was readily phosphorylated by full-length MELK or the kinase domain of MELK” and the “in vitro kinase assay, phosphorylation of eIF4B at Ser422 (immunoblot)” value is “MELK does not phosphorylates eIF4B at S422 in vitro”. Further, in the data set with Flag-eIF4B (S406A), the “in vitro kinase assay, phosphorylation of eIF4B at S406 (immunoblot)” value is given as “This phosphorylation was abolished when wild type (wt) eIF4B was replaced with a mutant eIF4B (S406A)”. Besides, the “positional scanning peptide library screen, in vitro phosphorylation with 32P-ATP” value in data set [1] was “an optimal substrate motif for MELK was identified having a strong selection for arginine at the -3 position relative to serine/threonine”.
